# Test results taken from patent publication US6740739B1, “Substitutional variants of APO-2 ligand” (Genentech, Inc., priority 1998, dated 2004).
# B1: Apo-2L: purified soluble His10-tagged human Apo-2 ligand, residues 114-281, from baculovirus-infected Sf9 cells (Example 3); used in Examples 4-14 (protein)
# chain: MGHHHHHHHHHHSSGHIDDDDKHMVRERGPQRVAAHITGTRGRSNTLSSPNSKNEKALGRKINSWESSRSGHSFLSNLHLRNGELVIHEKGFYYIYSQTYFRFQEEIKENTKNDKQMVQYIYKYTSYPDPILLMKSARNSCWSKDAEYGLYSIYQGGIFELKENDRIFVSVTNEHLIDMDHEASFFGAFLVG
# Experiments:
# Type in all cases: cell-based, human
# [1] = system: 9D cells; experiment: Apoptosis by FACS (PI / FITC-annexin V); conditions: Apo-2 ligand 3 μg/ml, 24 hours, control 22.5
# Protocol: Apoptotic activity of purified, soluble Apo-2 ligand (described in Example 3) was examined using several human lymphoid cell lines. In a first study, the effect of Apo-2 ligand on 9D cells (Genentech, Inc.), derived from Epstein-Barrvirus (EBV)-transformed human peripheral blood B cells, was examined. The 9D cells (5×10^4 cells/well in RPMI 1640 medium plus 10% fetal calf serum) were incubated for 24 hours with either a media control, Apo-2 ligand (3 μg/ml, prepared as described in Example 3 above), or anti-Apo-1 monoclonal antibody, CH11 (1 μg/ml) [described by Yonehara et al., J. Exp. Med., 169:1747-1756 (1989); commercially available from Medical and Biological Laboratories Co.]. […]
# The effects of the Apo-2 ligand on the 9D cells, as well as on Raji cells (human Burkitt's lymphoma B cell line, ATCC CCL 86) and Jurkat cells (human acute T cell leukemia cell line, ATCC TIB 152) were further analyzed by FACS. […]
# The 9D cells (FIG. 2B), Raji cells (FIG. 2C), and Jurkat cells (FIG. 2D) were incubated (1×10^6 cells/well) for 24 hours with a media control (left panels), Apo-2 ligand (3 μg/ml, prepared as described in Example 3) (center panels), or anti-Apo-1 ligand antibody, CH11 (1 μg/ml) (right panels). The cells were then washed, stained with PI and with fluorescein thiocyanate (FITC)-conjugatedannexin V (purchased from Brand Applications) and analyzed by flow cytometry. […]
# [2] = system: 293; experiment: Apoptosis by FACS, non-lymphoid tumor cell lines; conditions: Apo-2 ligand 3 μg/ml, 24 hours, control 12.3
# Protocol: (§1) The effects of the Apo-2 ligand on the 9D cells, as well as on Raji cells (human Burkitt's lymphoma B cell line, ATCC CCL 86) and Jurkat cells (human acute T cell leukemia cell line, ATCC TIB 152) were further analyzed by FACS. The FACS analysis was conducted, using established criteria for apoptotic cell death, namely, the relation of fluorescence staining of the cells with two markers: (a) propidium iodide (“PI”) dye, which stains apoptotic but not live cells, and (b) a fluorescent derivative of the protein, annexin V, which binds to the exposed phosphatidylserine found on the surface of apoptotic cells, but not on live cells [Darzynkiewicz et al., Methods in Cell Biol., 41:15-38 (1994); Fadok et al., J. Immunol., 148:2207-2216 (1992); Koopman et al., Blood, 84:1415-1420 (1994)].
# (§2) The 9D cells (FIG. 2B), Raji cells (FIG. 2C), and Jurkat cells (FIG. 2D) were incubated (1×10^6 cells/well) for 24 hours with a media control (left panels), Apo-2 ligand (3 μg/ml, prepared as described in Example 3) (center panels), or anti-Apo-1 ligand antibody, CH11 (1 μg/ml) (right panels). The cells were then washed, stained with PI and with fluorescein thiocyanate (FITC)-conjugatedannexin V (purchased from Brand Applications) and analyzed by flow cytometry. Cells negative for both PI and annexin V staining (quadrant 3) represent live cells; PI-negative, annexin V-positive staining cells (quadrant 4) represent early apoptotic cells; PI-positive, annexin V-positive staining cells (quadrant 2) represent primarily cells in late stages of apoptosis.
# (§3) The effect of Apo-2 ligand on human non-lymphoid tumor cell lines was examined using the following cell lines: HeLa (derived from human cervical carcinoma, ATCC CCL 22); ME-180 (derived from human cervical carcinoma, ATCC HTB 33); MCF7 (derived from human breast carcinoma, ATCC HTB 22); U-937 (derived from human hystiocytic lymphoma, ATCC CRL 1593); A549 (derived from human lung carcinoma, ATCC CCL 185); and 293 (derived from an adenovirus-transformed human embryonic kidney cells, ATCC CCL 1573).
# (§4) In the assay, 1×10^6 cells of each cell line were incubated for 24 hours with a media control, Apo-2 ligand (3 μg/ml, prepared as described in Example 3), or anti-Apo-1 monoclonal antibody, CH 11 (1 μg/m1). Following the incubation, apoptosis was measured by FACS analysis, as described in Example 4.
# [3] = system: A549; experiment: Apoptosis by FACS, non-lymphoid tumor cell lines; conditions: Apo-2 ligand 3 μg/ml, 24 hours, control 16.5
# Protocol: as §1, §2, §3, §4
# [4] = system: HeLa; experiment: Apoptosis by FACS, non-lymphoid tumor cell lines; conditions: Apo-2 ligand 3 μg/ml, 24 hours, control 5.3
# Protocol: as §1, §2, §3, §4
# [5] = system: MCF7; experiment: Apoptosis by FACS, non-lymphoid tumor cell lines; conditions: Apo-2 ligand 3 μg/ml, 24 hours, control 39.9
# Protocol: as §1, §2, §3, §4
# [6] = system: ME-180; experiment: Apoptosis by FACS, non-lymphoid tumor cell lines; conditions: Apo-2 ligand 3 μg/ml, 24 hours, control 8.6
# Protocol: as §1, §2, §3, §4
# [7] = system: U-937; experiment: Apoptosis by FACS, non-lymphoid tumor cell lines; conditions: Apo-2 ligand 3 μg/ml, 24 hours, control 3.6
# Protocol: as §1, §2, §3, §4
# [8] = system: A549
# Protocol: (§5) The following human tumor cell lines were assayed: A549 (lung carcinoma, ATCC CCL 185); HCT116 (colon carcinoma, ATCC CCL 247); SW480 (colon adenocarcinoma, ATCC CCL 228); MDA231 (breast adenocarcinoma, ATCC HTB 26); HeLa (cervical carcinoma, ATCC CCL 22); ME-180 (cervical carcinoma, ATCC HTB 33); T24 (bladder carcinoma. ATCC HTB 4); SK-N-AS (neuroblastoma, White et al., Proc. Natl. Acad. Sci., 92:5520-5524 (1995)). The cells were plated at 2.5×10^5 cells/ml in 96 well plates and incubated overnight. The cells were cultured in the presence of 2-fold dilutions of Apo-2 ligand (ranging from 100 ng/ml to 0.01 ng/ml). In some of the cultures, a chemotherapeuticagent was also added for 24 hours-cyclohexamide (“CHX”) (50 μg/ml; Sigma Chemicals), Doxorubicin (10-100 μg/ml; Pharmacia), or 5-FU (6 mg/ml; Roche). After 24 hours of incubation, the cells were stained with 0.5% crystal-violetin 20% methanol. Cell viability was determined by eluting the dye from the stained cells with 0.1M sodium citrate (0.1M citric acid in 50% methanol), and measuring absorbance at 540 nm.
# [9] = system: HCT116
# Protocol: as §5
# [10] = system: MDA231
# Protocol: as §5
# [11] = system: SW480
# Protocol: as §5
molecule,measurement,setting,value
B1,% apoptotic cells,[1],92.4%
same,% apoptotic cells,[2],12.2%
same,% apoptotic cells,[3],74.6%
same,% apoptotic cells,[4],18.6%
same,% apoptotic cells,[5],47.3%
same,% apoptotic cells,[6],80.7%
same,% apoptotic cells,[7],62.3%
same,Apo-2L sensitivity ENHANCED BY 5-FU,[8],yes
same,Apo-2L sensitivity ENHANCED BY Dox,"[8]; A549, Doxorubicin 10-100 μg/ml, 24 hours",yes
same,Apo-2L sensitivity ENHANCED BY CHX,"[8]; A549, cyclohexamide 50 μg/ml, 24 hours",yes
same,Apo-2L SENSITIVITY,"[8]; A549 lung carcinoma, p53 WT, 24 h",++ (>70% death after 24 h with 100 ng/ml Apo-2L)
same,Apo-2L sensitivity ENHANCED BY 5-FU,[9],yes
same,Apo-2L sensitivity ENHANCED BY Dox,"[9]; HCT116, Doxorubicin 10-100 μg/ml, 24 hours",yes
same,Apo-2L sensitivity ENHANCED BY CHX,"[9]; HCT116, cyclohexamide 50 μg/ml, 24 hours",yes
same,Apo-2L SENSITIVITY,"[9]; HCT116 colon carcinoma, p53 mut, 24 h",++ (>70% death after 24 h with 100 ng/ml Apo-2L)
same,Apo-2L sensitivity ENHANCED BY 5-FU,[10],yes
same,Apo-2L sensitivity ENHANCED BY Dox,"[10]; MDA231, Doxorubicin 10-100 μg/ml, 24 hours",yes
same,Apo-2L sensitivity ENHANCED BY CHX,"[10]; MDA231, cyclohexamide 50 μg/ml, 24 hours",yes
same,Apo-2L SENSITIVITY,"[10]; MDA231 breast carcinoma, p53 mut, 24 h",++ (>70% death after 24 h with 100 ng/ml Apo-2L)
same,Apo-2L sensitivity ENHANCED BY 5-FU,[11],yes
same,Apo-2L sensitivity ENHANCED BY Dox,"[11]; SW480, Doxorubicin 10-100 μg/ml, 24 hours",yes
same,Apo-2L sensitivity ENHANCED BY CHX,"[11]; SW480, cyclohexamide 50 μg/ml, 24 hours",yes
same,Apo-2L SENSITIVITY,"[11]; SW480 colon carcinoma, p53 mut, 24 h",++ (>70% death after 24 h with 100 ng/ml Apo-2L)
